Source: paper PMC9482650, “Quantitative fragmentomics allow affinity mapping of interactomes” (Nature Communications, 2022)

Legend:
Assay in all cases: holdup assay
Set-up in all cases: key: below the threshold = too weak to quantify, mostly under pKd 3.1 to 4
Conditions in all cases: plain residues with an end cap or a label only (N-terminal biotin on a linker: ado-ado)
DLG2_2, Q15700 = molecular target: DLG2_2, Q15700
GRIP1_5, Q9Y3R0 = molecular target: T1, GRIP1_5, Q9Y3R0
T1 sequence (Q9Y3R0 568-668, limits assumed, looked up): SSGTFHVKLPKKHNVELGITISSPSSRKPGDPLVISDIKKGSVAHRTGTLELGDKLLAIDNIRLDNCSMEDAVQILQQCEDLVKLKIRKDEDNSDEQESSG

DLG3_3, Q92796 = molecular target: T2, DLG3_3, Q92796
T2 sequence (Q92796 374-475, limits assumed, looked up): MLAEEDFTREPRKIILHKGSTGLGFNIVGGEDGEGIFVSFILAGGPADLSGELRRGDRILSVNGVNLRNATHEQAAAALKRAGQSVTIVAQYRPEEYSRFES

SCRIB_2, Q14160 = molecular target: SCRIB_2, Q14160
SCRIB_2, Q14160, sequence (Q14160 857-960): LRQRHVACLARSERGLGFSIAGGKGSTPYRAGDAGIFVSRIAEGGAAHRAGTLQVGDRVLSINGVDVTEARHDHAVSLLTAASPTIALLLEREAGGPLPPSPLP

PDLIM1, O00151 = molecular target: PDLIM1, O00151
PDLIM1, O00151, sequence (O00151 1-87): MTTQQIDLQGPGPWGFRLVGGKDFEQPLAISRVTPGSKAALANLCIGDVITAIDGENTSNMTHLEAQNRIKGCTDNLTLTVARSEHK

MPP6, Q9NZW5 = molecular target: T3, MPP6, Q9NZW5
T3 sequence (Q9NZW5 125-219, limits assumed, looked up): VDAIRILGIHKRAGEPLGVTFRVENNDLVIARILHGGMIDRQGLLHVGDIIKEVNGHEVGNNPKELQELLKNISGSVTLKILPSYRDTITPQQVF

SCRIB_3, Q14160 = molecular target: SCRIB_3, Q14160
SCRIB_3, Q14160, sequence (Q14160 999-1103): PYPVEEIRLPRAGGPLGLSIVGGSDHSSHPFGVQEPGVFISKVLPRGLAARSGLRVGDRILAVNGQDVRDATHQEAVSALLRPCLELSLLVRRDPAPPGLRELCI

LIN7A, O14910 = molecular target: T4, LIN7A, O14910
T4 sequence (O14910 103-200, limits assumed, looked up): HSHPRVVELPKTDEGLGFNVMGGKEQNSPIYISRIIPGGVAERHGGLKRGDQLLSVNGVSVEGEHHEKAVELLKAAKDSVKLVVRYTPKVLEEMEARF

DLG3_2, Q92796 = molecular target: T5, DLG3_2, Q92796
T5 sequence (Q92796 221-321, limits assumed, looked up): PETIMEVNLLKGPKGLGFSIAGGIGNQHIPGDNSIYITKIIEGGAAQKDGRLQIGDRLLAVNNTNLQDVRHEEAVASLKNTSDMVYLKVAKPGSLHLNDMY

DLG5_1, Q8TDM6 = molecular target: DLG5_1, Q8TDM6
DLG5_1, Q8TDM6, sequence (Q8TDM6 617-713): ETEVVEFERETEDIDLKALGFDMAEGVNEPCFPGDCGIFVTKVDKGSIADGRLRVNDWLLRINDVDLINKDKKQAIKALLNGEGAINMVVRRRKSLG

GORASP2, Q9H8Y8 = molecular target: GORASP2, Q9H8Y8
APBA1_1, Q02410 = molecular target: T6, APBA1_1, Q02410
T6 sequence (Q02410 651-752, limits assumed, looked up): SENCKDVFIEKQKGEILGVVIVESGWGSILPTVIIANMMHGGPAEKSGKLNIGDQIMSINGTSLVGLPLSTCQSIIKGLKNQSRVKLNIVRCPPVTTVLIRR

MAGI2_2, Q86UL8 = molecular target: MAGI2_2, Q86UL8
MAGI2_2, Q86UL8, sequence (Q86UL8 410-522): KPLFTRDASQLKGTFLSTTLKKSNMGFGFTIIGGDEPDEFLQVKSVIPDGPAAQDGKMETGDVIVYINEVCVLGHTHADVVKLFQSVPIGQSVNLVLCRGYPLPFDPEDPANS

GRASP, Q7Z6J2 = molecular target: GRASP, Q7Z6J2
GRASP, Q7Z6J2, sequence (Q7Z6J2 96-193): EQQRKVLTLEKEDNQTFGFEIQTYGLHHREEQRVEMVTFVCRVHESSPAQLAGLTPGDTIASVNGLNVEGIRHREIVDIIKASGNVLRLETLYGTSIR

MAGI1_2, Q96QZ7 = molecular target: MAGI1_2, Q96QZ7
MAGI1_2, Q96QZ7, sequence (Q96QZ7 456-580): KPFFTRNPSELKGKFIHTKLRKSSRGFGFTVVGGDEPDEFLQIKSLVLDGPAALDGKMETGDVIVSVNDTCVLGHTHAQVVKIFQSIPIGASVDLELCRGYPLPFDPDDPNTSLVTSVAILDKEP

MPDZ_5, O75970 = molecular target: T7, MPDZ_5, O75970
T7 sequence (O75970 695-796, limits assumed, looked up): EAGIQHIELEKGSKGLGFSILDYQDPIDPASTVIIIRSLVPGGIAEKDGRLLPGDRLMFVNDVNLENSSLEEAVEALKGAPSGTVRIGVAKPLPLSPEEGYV

LDB3, O75112 = molecular target: LDB3, O75112
LDB3, O75112, sequence (O75112 1-94): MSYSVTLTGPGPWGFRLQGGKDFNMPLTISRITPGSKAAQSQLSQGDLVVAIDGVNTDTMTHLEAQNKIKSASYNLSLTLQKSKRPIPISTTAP

RADIL, Q96JH8 = molecular target: T8, RADIL, Q96JH8
T8 sequence (Q96JH8 971-1071, limits assumed, looked up): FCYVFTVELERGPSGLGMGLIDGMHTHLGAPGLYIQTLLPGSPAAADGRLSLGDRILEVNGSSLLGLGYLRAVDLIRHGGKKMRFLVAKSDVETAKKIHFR

MAGI3_2, Q5TCQ9 = molecular target: MAGI3_2, Q5TCQ9
MAGI3_2, Q5TCQ9, sequence (Q5TCQ9 398-503): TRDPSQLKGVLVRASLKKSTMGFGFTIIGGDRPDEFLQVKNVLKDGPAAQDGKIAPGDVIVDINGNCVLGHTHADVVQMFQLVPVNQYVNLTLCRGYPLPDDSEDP

SHANK1, Q9Y566 = molecular target: T9, SHANK1, Q9Y566
T9 sequence (Q9Y566 658-767, limits assumed, looked up): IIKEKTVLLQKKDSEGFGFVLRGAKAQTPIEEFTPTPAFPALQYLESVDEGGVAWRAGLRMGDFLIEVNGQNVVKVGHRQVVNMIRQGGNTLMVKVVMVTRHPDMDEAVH

TJP2_1, Q9UDY2 = molecular target: TJP2_1, Q9UDY2
TJP2_1, Q9UDY2, sequence (Q9UDY2 24-128): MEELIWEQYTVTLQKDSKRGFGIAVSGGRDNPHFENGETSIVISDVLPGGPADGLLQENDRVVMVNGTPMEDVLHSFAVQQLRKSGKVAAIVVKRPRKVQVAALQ

SIPA1L2, Q9P2F8 = molecular target: T10, SIPA1L2, Q9P2F8
T10 sequence (Q9P2F8 945-1036, limits assumed, looked up): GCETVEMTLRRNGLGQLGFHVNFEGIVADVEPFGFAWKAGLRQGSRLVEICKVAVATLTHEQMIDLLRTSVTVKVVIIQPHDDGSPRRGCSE

MAGI2_3, Q86UL8 = molecular target: MAGI2_3, Q86UL8
MAGI2_3, Q86UL8, sequence (Q86UL8 600-682): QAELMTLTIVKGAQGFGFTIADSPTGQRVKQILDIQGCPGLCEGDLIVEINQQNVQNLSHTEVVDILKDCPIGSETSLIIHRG

DLG4_3, P78352 = molecular target: DLG4_3, P78352
DLG4_3, P78352, sequence (P78352 306-403): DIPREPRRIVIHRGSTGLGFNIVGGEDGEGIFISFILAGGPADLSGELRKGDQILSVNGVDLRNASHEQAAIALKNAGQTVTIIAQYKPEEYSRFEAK

ARHGEF12, Q9NZN5-2 = molecular target: ARHGEF12, Q9NZN5-2
ARHGEF12, Q9NZN5-2, sequence (Q9NZN5 other isoform, or with tags, fused parts or gaps): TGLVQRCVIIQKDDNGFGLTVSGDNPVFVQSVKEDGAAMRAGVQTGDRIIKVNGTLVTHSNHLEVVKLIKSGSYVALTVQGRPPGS

FRMPD4, Q14CM0 = molecular target: FRMPD4, Q14CM0
FRMPD4, Q14CM0, sequence (Q14CM0 67-160): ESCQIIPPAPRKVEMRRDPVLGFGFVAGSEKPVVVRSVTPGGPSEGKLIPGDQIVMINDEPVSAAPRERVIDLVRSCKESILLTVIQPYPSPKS

TJP1_2, Q07157 = molecular target: TJP1_2, Q07157
TJP1_2, Q07157, sequence (Q07157 181-274): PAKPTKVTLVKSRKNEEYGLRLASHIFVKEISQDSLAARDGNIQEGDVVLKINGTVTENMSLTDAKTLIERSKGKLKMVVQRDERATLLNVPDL

IL16_1, Q14005 = molecular target: IL16_1, Q14005
IL16_1, Q14005, sequence (Q14005 210-306): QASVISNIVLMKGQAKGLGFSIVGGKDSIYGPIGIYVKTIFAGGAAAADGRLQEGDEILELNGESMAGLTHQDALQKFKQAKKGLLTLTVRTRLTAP

DLG2_2, Q15700, sequence (Q15700 189-283): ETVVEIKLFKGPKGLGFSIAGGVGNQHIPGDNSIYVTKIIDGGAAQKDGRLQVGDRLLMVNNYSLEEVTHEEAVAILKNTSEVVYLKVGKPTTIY

PAALPESTHM [SLC9A3, P48764] was tested, and the pKd (DLG2_2, Q15700) was “below the threshold”, the pKd (GRIP1_5, Q9Y3R0) was “below the threshold” and the pKd (DLG3_3, Q92796) was “below the threshold”. For the same binder, the pKd (SCRIB_2, Q14160) was “below the threshold”, the pKd (PDLIM1, O00151) was “below the threshold” and the pKd (MPP6, Q9NZW5) was “below the threshold”. The pKd (SCRIB_3, Q14160) was 3.55, the pKd (LIN7A, O14910) was “below the threshold” and the pKd (DLG3_2, Q92796) was “below the threshold”. For the same binder, the pKd (DLG5_1, Q8TDM6) was “below the threshold”, the pKd (GORASP2, Q9H8Y8) was “below the threshold” and the pKd (APBA1_1, Q02410) was “below the threshold”. The pKd (MAGI2_2, Q86UL8) was “below the threshold”, the pKd (GRASP, Q7Z6J2) was “below the threshold” and the pKd (MAGI1_2, Q96QZ7) was “below the threshold”. The pKd (MPDZ_5, O75970) was “below the threshold”, the pKd (LDB3, O75112) was “below the threshold” and the pKd (RADIL, Q96JH8) was “below the threshold”. The pKd (MAGI3_2, Q5TCQ9) was “below the threshold”, the pKd (SHANK1, Q9Y566) was 4.78 and the pKd (TJP2_1, Q9UDY2) was “below the threshold”. The pKd (SIPA1L2, Q9P2F8) was “below the threshold”, the pKd (MAGI2_3, Q86UL8) was “below the threshold” and the pKd (DLG4_3, P78352) was “below the threshold”. The pKd (ARHGEF12, Q9NZN5-2) was “below the threshold”, the pKd (FRMPD4, Q14CM0) was “below the threshold” and the pKd (TJP1_2, Q07157) was “below the threshold”. For the same binder, the pKd (IL16_1, Q14005) was “below the threshold”.

In the case of SKQFDKNAYV [CLDN10, P78369], the pKd (DLG2_2, Q15700) is reported as “below the threshold”, the pKd (GRIP1_5, Q9Y3R0) is reported as “below the threshold” and the pKd (DLG3_3, Q92796) is reported as “below the threshold”. The pKd (SCRIB_2, Q14160) was “below the threshold”, the pKd (PDLIM1, O00151) was “below the threshold” and the pKd (MPP6, Q9NZW5) was “below the threshold”. For the same binder, the pKd (SCRIB_3, Q14160) was “below the threshold”, the pKd (LIN7A, O14910) was “below the threshold” and the pKd (DLG3_2, Q92796) was “below the threshold”. For the same binder, the pKd (DLG5_1, Q8TDM6) was “below the threshold”, the pKd (GORASP2, Q9H8Y8) was “below the threshold” and the pKd (APBA1_1, Q02410) was “below the threshold”. For the same binder, the pKd (MAGI2_2, Q86UL8) was “below the threshold”, the pKd (GRASP, Q7Z6J2) was 3.56 and the pKd (MAGI1_2, Q96QZ7) was “below the threshold”. The pKd (MPDZ_5, O75970) was “below the threshold”, the pKd (LDB3, O75112) was “below the threshold” and the pKd (RADIL, Q96JH8) was 4.18. The pKd (MAGI3_2, Q5TCQ9) was 3.67, the pKd (SHANK1, Q9Y566) was “below the threshold” and the pKd (TJP2_1, Q9UDY2) was 4.19. For the same binder, the pKd (SIPA1L2, Q9P2F8) was “below the threshold”, the pKd (MAGI2_3, Q86UL8) was “below the threshold” and the pKd (DLG4_3, P78352) was “below the threshold”. It also gave a pKd (ARHGEF12, Q9NZN5-2) of 3.66, a pKd (FRMPD4, Q14CM0) of 3.59 and a pKd (TJP1_2, Q07157) of 3.61. The pKd (IL16_1, Q14005) was “below the threshold”.

For VYEVPVETKF [SLC26A3, P40879], the pKd (DLG2_2, Q15700) was “below the threshold”, the pKd (GRIP1_5, Q9Y3R0) was “below the threshold” and the pKd (DLG3_3, Q92796) was “below the threshold”. The pKd (SCRIB_2, Q14160) was 3.67, the pKd (PDLIM1, O00151) was “below the threshold” and the pKd (MPP6, Q9NZW5) was “below the threshold”. The pKd (SCRIB_3, Q14160) was 4.44, the pKd (LIN7A, O14910) was “below the threshold” and the pKd (DLG3_2, Q92796) was 4.13. The pKd (DLG5_1, Q8TDM6) was “below the threshold”, the pKd (GORASP2, Q9H8Y8) was “below the threshold” and the pKd (APBA1_1, Q02410) was “below the threshold”. For the same binder, the pKd (MAGI2_2, Q86UL8) was “below the threshold”, the pKd (GRASP, Q7Z6J2) was 3.81 and the pKd (MAGI1_2, Q96QZ7) was “below the threshold”. For the same binder, the pKd (MPDZ_5, O75970) was “below the threshold”, the pKd (LDB3, O75112) was 3.55 and the pKd (RADIL, Q96JH8) was “below the threshold”. The pKd (MAGI3_2, Q5TCQ9) was “below the threshold”, the pKd (SHANK1, Q9Y566) was 4.63 and the pKd (TJP2_1, Q9UDY2) was 4.02. The pKd (SIPA1L2, Q9P2F8) was “below the threshold”, the pKd (MAGI2_3, Q86UL8) was “below the threshold” and the pKd (DLG4_3, P78352) was “below the threshold”. For the same binder, the pKd (ARHGEF12, Q9NZN5-2) was “below the threshold”, the pKd (FRMPD4, Q14CM0) was 3.65 and the pKd (TJP1_2, Q07157) was “below the threshold”. For the same binder, the pKd (IL16_1, Q14005) was “below the threshold”.

In the case of NTALVESEDL [PALLS, Q8WX93;Q8WX93-1], the pKd (DLG2_2, Q15700) is reported as “below the threshold”, the pKd (GRIP1_5, Q9Y3R0) is reported as “below the threshold” and the pKd (DLG3_3, Q92796) is reported as “below the threshold”. The pKd (SCRIB_2, Q14160) was “below the threshold”, the pKd (PDLIM1, O00151) was 5.47 and the pKd (MPP6, Q9NZW5) was “below the threshold”. For the same binder, the pKd (LIN7A, O14910) was “below the threshold”, the pKd (DLG3_2, Q92796) was “below the threshold” and the pKd (DLG5_1, Q8TDM6) was “below the threshold”. The pKd (GORASP2, Q9H8Y8) was “below the threshold”, the pKd (APBA1_1, Q02410) was “below the threshold” and the pKd (MAGI2_2, Q86UL8) was “below the threshold”. The pKd (GRASP, Q7Z6J2) was “below the threshold”, the pKd (MAGI1_2, Q96QZ7) was “below the threshold” and the pKd (MPDZ_5, O75970) was “below the threshold”. The pKd (LDB3, O75112) was 5.16, the pKd (RADIL, Q96JH8) was “below the threshold” and the pKd (MAGI3_2, Q5TCQ9) was “below the threshold”. For the same binder, the pKd (SHANK1, Q9Y566) was “below the threshold”, the pKd (TJP2_1, Q9UDY2) was “below the threshold” and the pKd (SIPA1L2, Q9P2F8) was “below the threshold”. The pKd (MAGI2_3, Q86UL8) was “below the threshold”, the pKd (DLG4_3, P78352) was “below the threshold” and the pKd (ARHGEF12, Q9NZN5-2) was “below the threshold”. The pKd (TJP1_2, Q07157) was “below the threshold” and the pKd (IL16_1, Q14005) was “below the threshold”.

With VKQYADVEGF [HNRNPK, P61978;P61978-2] the pKd (DLG2_2, Q15700) was “below the threshold”, the pKd (GRIP1_5, Q9Y3R0) was “below the threshold” and the pKd (DLG3_3, Q92796) was “below the threshold”. For the same binder, the pKd (SCRIB_2, Q14160) was “below the threshold”, the pKd (PDLIM1, O00151) was “below the threshold” and the pKd (SCRIB_3, Q14160) was “below the threshold”. For the same binder, the pKd (LIN7A, O14910) was “below the threshold”, the pKd (DLG3_2, Q92796) was 4.09 and the pKd (DLG5_1, Q8TDM6) was “below the threshold”. The pKd (GORASP2, Q9H8Y8) was “below the threshold”, the pKd (APBA1_1, Q02410) was “below the threshold” and the pKd (MAGI1_2, Q96QZ7) was “below the threshold”. For the same binder, the pKd (MPDZ_5, O75970) was “below the threshold”, the pKd (LDB3, O75112) was “below the threshold” and the pKd (RADIL, Q96JH8) was “below the threshold”. The pKd (MAGI3_2, Q5TCQ9) was “below the threshold”, the pKd (SHANK1, Q9Y566) was “below the threshold” and the pKd (TJP2_1, Q9UDY2) was “below the threshold”. For the same binder, the pKd (SIPA1L2, Q9P2F8) was “below the threshold”, the pKd (MAGI2_3, Q86UL8) was “below the threshold” and the pKd (DLG4_3, P78352) was “below the threshold”. For the same binder, the pKd (ARHGEF12, Q9NZN5-2) was “below the threshold”, the pKd (FRMPD4, Q14CM0) was “below the threshold” and the pKd (TJP1_2, Q07157) was “below the threshold”. For the same binder, the pKd (IL16_1, Q14005) was “below the threshold”.
